This experiment addresses N237_S47D with C-terminal human Fc tag. The experiment in a line: BLI. On the technique in general: Biolayer interferometry detects binding as a change in optical thickness at a sensor tip.

In turn, “Nipah virus attachment glycoprotein G receptor-binding domain (from UniProt Q9IH62 176-602) (domain or fragment)” had a Kd of 3.8 nM.

As a reminder, the Kd is the constant that tells how readily two partners part at equilibrium. A low value points to a tighter complex.
